Legend:
[1] = tested on: E. necator; assay: SIGS, E. necator spore production on V. vinifera (whole plant and leaf disc assays); format: in vivo, Erysiphe necator; settings: for visual powdery mildew coverage and density: V. vinifera leaves, 9 days post infection, vs buffer alone
From the text: Spore suspension concentrations were normalized to the input tissue weight (g) before being normalized to the control.
Spore suspension concentrations were normalized to the input tissue weight (g) before being normalized to the control. CYP51 is included as a positive control gene required for growth. Error bars±SEM. *p<0.05 by Student's T-Test (unpaired, 2-tailed) compared to control.
With SIGS methods optimized and gene targets identified, we sought to translate these methods and targets to grape powdery mildew (FIG. 2). New long dsRNAs were designed for each target tested as there is significant sequence divergence between G. orontii MGH1 and E. necator c. First, procedures were optimized for the grapevine system by silencing CYP51. Spore production was reduced by 62% and 45% in grapevine whole plant and leaf disc assays, respectively when treated with long dsRNA against the same region of CYP51 as dsRNA-1 against G. orontii MGH1 CYP51 (FIG. 2; FIG. 7, panel a). […] We tested SIGS against the effective targets including AATF in the grapevine system, as we were interested in ascertaining whether they would show a statistically significant difference in grape powdery mildew spore production. […] The average reduction of powdery mildew spore production for SIGS against CYP51 and AATF was greater in E. necator compared to G. orontii (FIG. 4 and FIG. 7). One notable difference is G. orontii has 2 copies each of CYP51 and AATF while E. necator has 1 copy of each of these genes. SIGS against the other effective targets also were effective in reducing powdery mildew of grapevine (FIG. 7).
As the full G. orontii MGH1 OEC60/OEC61 is conserved in other powdery mildews (Table 6) and has the potential to interact with both TCP13 and TCP14, we tested whether findings in the G. orontii MGH1-Arabidopsis pathosystem can translate to an agriculturally important pathosystem, powdery mildew of grapevine. To do so, we identified an OEC60/OEC61 homolog in E. necator c (Jones et al., 2014) and designed a long dsRNA to target this gene in the same region effective for G. orontii. Targeting of OEC60/OEC61 in Erysiphe necator by SIGS reduces grape powdery mildew production on V. vinifera leaves to 71% of control treated plants (FIG. 12), similar to the reduction seen with the Arabidopsis powdery mildew (FIG. 10, panel d).

[2] = tested on: grapevine powdery mildew E. necator; assay: Vineyard field trials of topical dsRNA: powdery mildew disease incidence and disease severity (Kearney and Armstrong sites); format: in vivo, Erysiphe necator; settings: Armstrong site
Description: The tests were done at Kearney Agriculture Research and Extension Center, Parlier, CA (Fresno County) and Armstrong Plant Pathology Field Station at University of California, Davis, CA. Susceptible grapevine cultivars were tested—Sauvignon Blanc at Kearney and Chenin Blanc at Davis. In both cases, the Stihl backpack sprayer SR450 was used and sprayer calibration, and normalization was performed to ensure equal doses of treatment applied to each replicate. During the trial period, vines were irrigated by drip irrigation and the regular maintenance of weeding, herbicide and insecticide treatments were done by the Kearney or Davis site field staff. In early season, 2.0 gallons/5 replicates and in mid to late season 2.5 to 3.0 gallons/5 replicates were sprayed. All appropriate personal protective equipment (PPE) was used and required training was completed including pesticide application training and heat exhaustion training. A randomized block design was used with 5 replicates for each treatment. Two adjacent vines were used as one experimental unit and the area between two trunks (yellow box) was sprayed and assessed (FIG. 16).
The trial was conducted at Kearney Agricultural Research and Extension Center, Parlier, CA on blocks of the susceptible white wine variety Sauvignon Blanc. Total of 5 different gene targets from grapevine powdery mildew E. necator, EnCYP51 (SEQ ID NO:182), EnLIP1 (SEQ ID NO:183), EnICL2 (SEQ ID NO:186), EnMS (SEQ ID NO:188) and EnAPG9 (SEQ ID NO:208) were tested at this site by backpack spraying of the experimental units with dsRNA designed specifically against these target genes. The treatments were placed in a randomized block design with 5 replicates of each (dsRNA treatments 1-5), 5 replicates of Gold Standard (GS) and 5 replicates of untreated control (UT Control). Gold Standard refers to the pesticides normally used by growers to control powdery mildew: Sulfur and other chemical fungicides such as Rally, Quintec, and Luna. Between each treatment replicate, consisting of two vines, there was a spacer vine to avoid the spray drift from one treatment another.
FIG. 17 provides an overview of the treatment schedule at Kearney. A total of 4 treatments of dsRNA were performed between May and July, replacing the 4 final treatments of the GS. Data were collected at the times marked by the gray dots in FIG. 17. The monitoring of powdery mildew index data and manual scouting of disease in the field was used to adjust timing schedule per standard protocol (www2.ipm.ucanr.edu/weather/grape-powdery-mildew-risk-assessment-index/?src=redirect2refresh).
The total number of bunches per replicate (mean of 130) and the bunches with powdery mildew growth were counted and percent of infected bunches per replicate was calculated.
Disease severity was calculated by counting the number of infected berries compared to total berries in a bunch. 25 bunches from both sides of the canopy were assessed per replicate.
This trial was conducted at University of California Davis Plant Pathology Armstrong Facility on white wine variety Chenin Blanc. A total of 4 different gene targets from grapevine powdery mildew E. necator, EnLIP1 (Seq ID No:183), EnICL2 (Seq ID 186), EnMS (Seq ID No:188) and EnAPG9 (Seq ID No:208) were tested at this site by treating the vines with dsRNA designed against these target genes. A randomized block design with 5 replicates of each (treatments 1-5) and 5 replicates of untreated control (UT Control) was utilized. Spray protocols and spray volumes were the same as done by Akif Eskalen's team as shown on this link (Elfar et al. 2021, ucanr.edu/sites/eskalenlab/files/355630.pdf) and in Table 10. Eskalen's lab performed 3rd party commercial fungicide trials for the industry.
In this field trial, a total of 3 sprays of dsRNA were performed between May and early June (FIG. 21). For the dsRNA treatments, no parallel chemical treatments were performed prior to the dsRNA treatments. […]

B1: E. necator OEC60/OEC61 dsRNA: long dsRNA against E. necator homolog of OEC60/OEC61 (target SEQ ID NO:199) (nucleic acid)
chain: CTGCTACTAGCTTTCATGGTATGAAACTCATTATTGGTGTTTTTATTGGTGAAACTGGTTGCTCTGGCGCTAAAGAGCAGGTGAACCACATCGTTAAATGGGGTAAATGGGATTTGGTAGAACTCATTGTGATCGGGAATGAGGCTCTGTTTAGTGGTCATGCGTCACCCGAAGAGTTAGCCGAATTTATTACCTCGACTAAAATCACCCTCAGATCAGC
modifications: misc_feature 1..220: note = Inhibitory double stranded RNA; listed as RNA
In the case of B1, the “effect on grapevine powdery mildew growth and reproduction / spore production” value ([1]; E. necator on V. vinifera, SIGS) is reported as “reduces spore production” and the “grape powdery mildew spore production relative to control treated plants” value ([1]; V. vinifera leaf discs (FIG. 12), long dsRNA) is reported as 71 % of control.

B2: EnMS: dsRNA against E. necator Malate synthase (target SEQ ID NO:188) (nucleic acid)
chain: TACAAGCTCAGATCAGACCGAAAACTTCCAACGCTTATTATAAGACCTCGTGGCTGGCACTTAGATGAGAAACATGTAACTATTGAAGGAGAGCCAATATCCGGCTCTCTATTCGATTTTGGACTATACTTTTTTCACAATGCCAAAGAACTGATAAAACGAGACTTAGGGCCCTACTTTTATCTTCCAAAGATGGAATCTTATCTAGAAGCCCGTCTTTGGAATGATGTCTTCAACCTAGCACAGGACTATATTGGTATTTCTCGTGGAACTATACGCGCTACAGTTCTAATTGAAACCATACTTGCTGCATTTGAAATG
modifications: misc_feature 1..321: note = Inhibitory double stranded RNA; listed as RNA
For B2, the “powdery mildew disease incidence” value ([2]; Chenin Blanc, 3 weeks after end of treatments (June 23), untreated ~80%) was roughly 20% and the “mean disease severity (percent of berries with powdery mildew per bunch)” value ([2]; June 28, almost 4 weeks post dsRNA treatment, untreated 12%) was 2%.

B3: E. necator AATF dsRNA: long dsRNA against E. necator AATF (target SEQ ID NO:197) (nucleic acid)
chain: TGATAGCGATCATGATAGATGCGACTCAAATTTTAGTAATAGGAATGACAAAGAGATTATTAAACGGTCTGAAATTCAAAGATTTATGGAAGAAGATCAAAAAGCAATATTATCAACTTTATCTCAAGCAGCAAAGGTAGATGCAGAAAAGGGAAGGGCAATTAAGTCACAACAAATGAGATTCGATTCTCTTCTAAATACGCGAATGGAGCTGCAGAAAGCTCTGATAGCAGTTAATTCTCTTACTACCTTTCAAGATGATAATTCTATTTTCTCCAAGGATAAGCCATACGAAGCAGC
modifications: misc_feature 1..300: note = Inhibitory double stranded RNA; listed as RNA
In the case of B3, the “average reduction in spore production” value ([1]; long dsRNA, assay format not stated (FIG. 7)) is reported as 53%.

B4: EnCYP51: long dsRNA against E. necator CYP51 (target SEQ ID NO:182) (nucleic acid)
chain: TGTCAACGCCGAAGAGATTTACACTAATTTAACAACTCCGGTCTTTGGAAGAGATGTTGTATTTGATTGTCCAAATTCCAAACTCATGGAACAAAAAAAGTTTATGAAAACGGCTCTTACCATTGAAGCGTTCCATTCCTATGTAACAATAATACAAAATGAAGTAGAGGCATATATAAACAATTGCGTTAGCTTTCAGGGTGAGAGTGGCACAGTAAACATCTCAAAAGTTATGGCGGAAATCACTA
modifications: misc_feature 1..248: note = Inhibitory double stranded RNA; listed as RNA
For B4, the “visual powdery mildew coverage and density” value [1] was “Less powdery mildew density”, the “visual powdery mildew coverage and density” value ([1]; listed as E. necator CYP51 dsRNA) was “less powdery mildew coverage and density” and the “reduction in spore production” value ([1]; grapevine leaf disc assay, long dsRNA) was 45%. For the same molecule, the “reduction in spore production” value ([1]; grapevine whole plant assay, long dsRNA) was 62%.

— US20260117244A1, “INHIBITORY RNA FOR THE CONTROL OF PHYTOPATHOGENS” (priority 2021, published 2026)
